Laboratory results taken from the supplement of paper PMC10567573.

B1: ZBTB22 (parent)
chain: AVLAASSPYFHDQVLLKGMTSISL

Variants of: B1
Assay: protein stability index of a GFP-peptide fusion (GPS, HEK-293T) (PSI 1-6); higher = more stable
Conditions: c terminus: a fixed tail appended
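Further: lentivirally expressed fusions sorted by FACS into six bins by GFP to DsRed ratio, PSI derived from sequencing read proportions per bin multiplied by bin number.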

Variant	protein stability index
AVLAASSLYFHDQVLLKGMTSISL	3.83
AVLAASSRYFHDQVLLKGMTSISL	4.82
AVLAASSGYFHDQVLLKGMTSISL	3.22
AVLAASSIYFHDQVLLKGMTSISL	2.73
AVLAASSAYFHDQVLLKGMTSISL	2.55
AVLAASSDYFHDQVLLKGMTSISL	2.5
AVLAASSHYFHDQVLLKGMTSISL	2.88
AVLAASSFYFHDQVLLKGMTSISL	2.55
AVLAASSPYFHDQRLLKGMTSISL	3.36
AVLAASSPYFHDQFLLKGMTSISL	1.8
AVLAASSPYFHDQALLKGMTSISL	2.47
AVLAASSPYFHDQTLLKGMTSISL	2.96
AVLAASSPYFHDQMLLKGMTSISL	2.72
AVLAASSPYFHDQNLLKGMTSISL	2.07
AVLAASSPYFHDQKLLKGMTSISL	1.04
AVLAASSPYFHDQPLLKGMTSISL	1.63
AVLAASSPYFHDQSLLKGMTSISL	3.06
AVLAASSPYFHDQELLKGMTSISL	2.47
AVLAASSPYFHDQQLLKGMTSISL	1.73
AVLAASSPYFHDQDLLKGMTSISL	1.71
AVLAASSPYFHDQHLLKGMTSISL	2.37
AVLAASSPYFHDQCLLKGMTSISL	3.27
AVLAASSPYFHDQYLLKGMTSISL	2.25
AVLAASSPYFHDQVQLKGMTSISL	1.76

Variant	protein stability index
AVLAASSPYFHDQVFLKGMTSISL	3.52
AVLAASSPYFHDQVKLKGMTSISL	2.3
AVLAASSPYFHDQVNLKGMTSISL	2.76
AVLAASSPYFHDQVHLKGMTSISL	1.4
AVLAASSPYFHDQVDLKGMTSISL	2.77
AVLAASSPYFHDQVGLKGMTSISL	3.34
AVLAASSPYFHDQVPLKGMTSISL	1.3
AVLAASSPYFHDQVMLKGMTSISL	1.94
AVLAASSPYFHDQVELKGMTSISL	1.38
AVLAASSPYFHDQVILKGMTSISL	3.58
AVLAASSPYFHDQVCLKGMTSISL	1.87
AVLAASSPYFHDQVALKGMTSISL	1.66
AVLAASSPYFHTQVLLKGMTSISL	2.95
AVLAASSPYFHKQVLLKGMTSISL	1.39
AVLAASSPYFHNQVLLKGMTSISL	1.98
AVLAASSPYFHWQVLLKGMTSISL	2.12
AVLAASSPYFHRQVLLKGMTSISL	3.23
AVLAASSPYFHYQVLLKGMTSISL	3.7
AVLAASSPYFHQQVLLKGMTSISL	3.51
AVLAASSPYFHAQVLLKGMTSISL	2.68
AVLAASSPYFHPQVLLKGMTSISL	3.38
AVLAASSPYFHLQVLLKGMTSISL	2.57
AVLAASSPYFMDQVLLKGMTSISL	4.12
AVLAASSPYFLDQVLLKGMTSISL	1.89

Variant	protein stability index
AVLAASSPYFIDQVLLKGMTSISL	1.58
AVLAASSPYFDDQVLLKGMTSISL	3.15
AVLAASSPYFTDQVLLKGMTSISL	3.44
AVLAASSPYFSDQVLLKGMTSISL	2.71
AVLAASSPYFPDQVLLKGMTSISL	2.11
AVLDASSPYFHDQVLLKGMTSISL	1.15
AVLKASSPYFHDQVLLKGMTSISL	2.92
AVLPASSPYFHDQVLLKGMTSISL	1.05
AVLYASSPYFHDQVLLKGMTSISL	2
AVLHASSPYFHDQVLLKGMTSISL	4.29
AVLLASSPYFHDQVLLKGMTSISL	2.9
AVLSASSPYFHDQVLLKGMTSISL	1.88
AVLGASSPYFHDQVLLKGMTSISL	1.92
AVLEASSPYFHDQVLLKGMTSISL	2.48
AVLFASSPYFHDQVLLKGMTSISL	2.24
AVLIASSPYFHDQVLLKGMTSISL	2.48
AVLMASSPYFHDQVLLKGMTSISL	2.04
AVLAASSPYFHDQVLQKGMTSISL	2.32
AVLAASSPYFHDQVLDKGMTSISL	1.93
AVLAASSPYFHDQVLYKGMTSISL	3.11
AVLAASSPYFHDQVLSKGMTSISL	2.26
AVLAASSPYFHDQVLPKGMTSISL	2.27
AVLAASSPYFHDQVLMKGMTSISL	3.83
AVLAASSPYFHDQVLNKGMTSISL	2.37

Variant	protein stability index
AVLAASSPYFHDQVLGKGMTSISL	2.28
AVLAASSPYFHDQVLCKGMTSISL	3.99
AVLAASSPYFHDQVLKKGMTSISL	3
AVLAASSPYFHDQVLFKGMTSISL	2.47
AVLAASSPYFHDQVLWKGMTSISL	2.44
AVLAASSPYFHDQVLLPGMTSISL	2.05
AVLAASSPYFHDQVLLIGMTSISL	3.47
AVLAASSPYFHDQVLLAGMTSISL	1.94
AVLAASSPYFHDQVLLYGMTSISL	2.88
AVLAASSPYFHDQVLLNGMTSISL	1.43
AQLAASSPYFHDQVLLKGMTSISL	1.62
AKLAASSPYFHDQVLLKGMTSISL	1.97
AILAASSPYFHDQVLLKGMTSISL	2.75
AELAASSPYFHDQVLLKGMTSISL	1.41
ADLAASSPYFHDQVLLKGMTSISL	2.17
ATLAASSPYFHDQVLLKGMTSISL	1.45
ARLAASSPYFHDQVLLKGMTSISL	2.15
ASLAASSPYFHDQVLLKGMTSISL	2.33
ANLAASSPYFHDQVLLKGMTSISL	1.63
AWLAASSPYFHDQVLLKGMTSISL	1.79
ACLAASSPYFHDQVLLKGMTSISL	1.04
AHLAASSPYFHDQVLLKGMTSISL	2.52
TVLAASSPYFHDQVLLKGMTSISL	4.21
MVLAASSPYFHDQVLLKGMTSISL	2.57

Variant	protein stability index
YVLAASSPYFHDQVLLKGMTSISL	2.9
NVLAASSPYFHDQVLLKGMTSISL	2.3
KVLAASSPYFHDQVLLKGMTSISL	3.83
QVLAASSPYFHDQVLLKGMTSISL	2.39
AVLAASSPYGHDQVLLKGMTSISL	2.6
AVLAASSPYKHDQVLLKGMTSISL	1.73
AVLAASSPYHHDQVLLKGMTSISL	2.49
AVLAASSPYQHDQVLLKGMTSISL	1.65
AVLAASSPYWHDQVLLKGMTSISL	2.24
AVLAASSPYMHDQVLLKGMTSISL	2.72
AVLAASSPYNHDQVLLKGMTSISL	1.92
AVLAASSPYYHDQVLLKGMTSISL	2.19
AVLAASSPYPHDQVLLKGMTSISL	1
AVLAASSPYVHDQVLLKGMTSISL	2.44
AVLAASSPYRHDQVLLKGMTSISL	1.41
AVLAASSPYSHDQVLLKGMTSISL	1.87
AVLAASSPYDHDQVLLKGMTSISL	2.04
AVLAASSPYCHDQVLLKGMTSISL	2.28
AVLAASSPYEHDQVLLKGMTSISL	1.76
AVHAASSPYFHDQVLLKGMTSISL	2.22
AVCAASSPYFHDQVLLKGMTSISL	2.92
AVTAASSPYFHDQVLLKGMTSISL	2.38
AVEAASSPYFHDQVLLKGMTSISL	2.04
AVNAASSPYFHDQVLLKGMTSISL	2.38

Variant	protein stability index
AVMAASSPYFHDQVLLKGMTSISL	3.26
AVIAASSPYFHDQVLLKGMTSISL	3.32
AVKAASSPYFHDQVLLKGMTSISL	1.64
AVRAASSPYFHDQVLLKGMTSISL	1.45
AVSAASSPYFHDQVLLKGMTSISL	1.45
AVQAASSPYFHDQVLLKGMTSISL	1.93
AVPAASSPYFHDQVLLKGMTSISL	3.11
AVAAASSPYFHDQVLLKGMTSISL	2.48
AVLAASSPNFHDQVLLKGMTSISL	2.96
AVLAASSPPFHDQVLLKGMTSISL	1.84
AVLAASSPVFHDQVLLKGMTSISL	2.54
AVLAASSPEFHDQVLLKGMTSISL	2.05
AVLAASSPDFHDQVLLKGMTSISL	2.17
AVLAASSPAFHDQVLLKGMTSISL	1.37
AVLAASSPHFHDQVLLKGMTSISL	1.33
AVLAASSPFFHDQVLLKGMTSISL	3.55
AVLAASSPIFHDQVLLKGMTSISL	4.18
AVLAASSPYFHDPVLLKGMTSISL	1.64
AVLAASSPYFHDMVLLKGMTSISL	2.94
AVLAASSPYFHDLVLLKGMTSISL	1.43
AVLAASSPYFHDAVLLKGMTSISL	3.38
AVLAASSPYFHDKVLLKGMTSISL	1.92
AVLAASSPYFHDVVLLKGMTSISL	2.02
AVLAASSPYFHDFVLLKGMTSISL	3

Variant	protein stability index
AVLAASSPYFHDGVLLKGMTSISL	2.15
AVLAASSPYFHDHVLLKGMTSISL	2.48
AVLAASSPYFHDDVLLKGMTSISL	3.61
AVLAASSPYFHDIVLLKGMTSISL	4.9
AVLAASSPYFHDTVLLKGMTSISL	3.86
AVLAASSPYFHDQVLLKDMTSISL	3.05
AVLAASSPYFHDQVLLKNMTSISL	2.37
AVLAASSPYFHDQVLLKKMTSISL	2.14
AVLAASSPYFHDQVLLKIMTSISL	2.8
AVLAASSPYFHDQVLLKFMTSISL	3.77
AVLAASSPYFHDQVLLKEMTSISL	1.46
AVLAASSPYFHDQVLLKAMTSISL	3.06
AVLAASSPYFHDQVLLKHMTSISL	1.84
AVLALSSPYFHDQVLLKGMTSISL	2.21
AVLANSSPYFHDQVLLKGMTSISL	2.66
AVLAESSPYFHDQVLLKGMTSISL	1.55
AVLAFSSPYFHDQVLLKGMTSISL	2.98
AVLAQSSPYFHDQVLLKGMTSISL	3.23
AVLAKSSPYFHDQVLLKGMTSISL	3.55
AVLAHSSPYFHDQVLLKGMTSISL	2.04
AVLATSSPYFHDQVLLKGMTSISL	3.75
AVLASSSPYFHDQVLLKGMTSISL	2.6
AVLAYSSPYFHDQVLLKGMTSISL	2.44
AVLAWSSPYFHDQVLLKGMTSISL	1.88

Variant	protein stability index
AVLAASTPYFHDQVLLKGMTSISL	3.75
AVLAASYPYFHDQVLLKGMTSISL	1.47
AVLAASEPYFHDQVLLKGMTSISL	2.33
AVLAASHPYFHDQVLLKGMTSISL	2.8
AVLAASLPYFHDQVLLKGMTSISL	2.91
AVLAASVPYFHDQVLLKGMTSISL	2.11
AVLAASWPYFHDQVLLKGMTSISL	2
AVLAASDPYFHDQVLLKGMTSISL	3.38
AVLAASIPYFHDQVLLKGMTSISL	4.5
AVLAAPSPYFHDQVLLKGMTSISL	2.23
AVLAARSPYFHDQVLLKGMTSISL	1.67
AVLAANSPYFHDQVLLKGMTSISL	3.54
AVLAAISPYFHDQVLLKGMTSISL	1.97
AVLAADSPYFHDQVLLKGMTSISL	2.61
AVLAAKSPYFHDQVLLKGMTSISL	2.05
AVLAAWSPYFHDQVLLKGMTSISL	3.82
AVLAAGSPYFHDQVLLKGMTSISL	2.75
AVLAAESPYFHDQVLLKGMTSISL	1.41
AVLAATSPYFHDQVLLKGMTSISL	2.4
AVLAAQSPYFHDQVLLKGMTSISL	3.02
